Reference: US20140161800A1 (APTEVO RESEARCH AND DEVELOPMENT, published 2014)

Key:
[1] = target: T1, prostate-specific membrane antigen (PSMA) (human, UniProt Q04609 1-750); test: flow cytometry on PSMA+ prostate cancer cells (FIG. 1)
T1 construct: whole, on cells; also called glutamate carboxypeptidase II; N-acetylated alpha-linked acidic dipeptidase 1

[2] = target: T1, prostate-specific membrane antigen …; test: flow cytometry on PSMA+ C4-2 cells (FIG. 2A)
Procedure: (§1) A typical experiment would label 300,000 cells per well with a range of 200 nM to 0.1 nM binding molecule in 100 ul of FACS buffer (PBS+2% normal goat serum+2% fetal bovine serum+0.1% sodium azide) on ice, followed by washes and incubation with fluorescently-labeled secondary antibody, goat anti-human IgG (1:400 dilution of Invitrogen #11013=5 ug/ml). After washing secondary antibody off cells, cells were incubated with 7-Aminoactinomycin D (7-AAD) staining solution (BD Pharmingen™ cat#559925) (6 ul of 7AAD to 100 ul of FACS Buffer) for 20 minutes. Signal from bound molecules was detected using a FACSCalibur™ flow cytometer (BD Biosciences) and analyzed by FlowJo flow cytometry analysis software. 7-AAD+ cells were excluded from analysis. Nonlinear regression analysis to determine EC50s was performed in GraphPad Prism® graphing and statistics software.

[3] = target: T1, prostate-specific membrane antigen …; test: flow cytometry on PSMA+ C4-2 cells (FIG. 2B)
Procedure: as §1

T1 sequence (Q04609 whole entry): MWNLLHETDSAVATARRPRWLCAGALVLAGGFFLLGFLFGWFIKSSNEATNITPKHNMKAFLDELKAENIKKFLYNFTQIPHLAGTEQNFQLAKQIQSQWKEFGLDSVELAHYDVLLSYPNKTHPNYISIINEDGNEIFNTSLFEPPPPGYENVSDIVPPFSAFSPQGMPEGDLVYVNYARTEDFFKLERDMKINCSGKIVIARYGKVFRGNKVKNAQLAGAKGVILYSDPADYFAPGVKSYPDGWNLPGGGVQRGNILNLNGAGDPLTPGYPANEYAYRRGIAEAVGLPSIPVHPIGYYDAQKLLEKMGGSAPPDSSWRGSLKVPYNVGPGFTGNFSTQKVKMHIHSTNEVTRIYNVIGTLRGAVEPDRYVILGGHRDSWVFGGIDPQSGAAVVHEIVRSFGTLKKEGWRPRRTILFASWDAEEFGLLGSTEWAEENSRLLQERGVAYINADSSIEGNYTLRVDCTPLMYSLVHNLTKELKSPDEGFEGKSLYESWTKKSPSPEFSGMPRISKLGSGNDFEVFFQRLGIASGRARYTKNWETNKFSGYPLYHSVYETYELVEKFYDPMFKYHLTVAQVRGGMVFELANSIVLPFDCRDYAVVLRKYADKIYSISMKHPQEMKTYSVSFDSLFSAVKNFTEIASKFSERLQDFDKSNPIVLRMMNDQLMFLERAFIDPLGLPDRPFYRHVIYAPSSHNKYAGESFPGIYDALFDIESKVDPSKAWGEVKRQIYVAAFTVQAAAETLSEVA

Binder | binding result [1] | binding result [2] | binding result [3]
TSC085 chimeric SMIP (murine 107-1A4 VL-VH scFv-human Fc) (Fc fusion, scFv-hinge-Fc) DVQITQSPSYLAASPGETITINCRASKSISKYLAWYQEKPGKANKLLIHSGSTLQSGIPSRFSGSGSGTDFTLTISSLEPEDFAMYYCQQHIEYPWTFGGGTKLEIKRAGGGGSGGGGSSGGGGSEIQLQQSGPELVKPGASVKMSCKASGYTFTDYYMHWVKQNNGESLEWIGYFNPYNDYTRYNQNFNGKATLTVDKSSSTAYMQLNSLTSEDSAFYYCARSDGYYDAMDYWGQGTSVTVSSSEPKSSDKTHTCPPCPAPEAAGAPSVFLFPPKPKDTLMISRTPEVTCVVVDVSHEDPEVKFNWYVDGVEVHNAKTKPREEQYNSTYRVVSVLTVLHQDWLNGKAYACAVSNKALPAPIEKTISKAKGQPREPQVYTLPPSRDELTKNQVSLTCLVKGFYPSDIAVEWESNGQPENNYKTTPPVLDSDGSFFLYSKLTVDKSRWQQGNVFSCSVMHEALHNHYTQKSLSLSPGK | binds | – | –
TSC092 chimeric SMIP (murine 107-1A4 VH-VL scFv-human Fc) (Fc fusion, scFv-hinge-Fc) EIQLQQSGPELVKPGASVKMSCKASGYTFTDYYMHWVKQNNGESLEWIGYFNPYNDYTRYNQNFNGKATLTVDKSSSTAYMQLNSLTSEDSAFYYCARSDGYYDAMDYWGQGTSVTVSSGGGGSGGGGSSGGGGSDVQITQSPSYLAASPGETITINCRASKSISKYLAWYQEKPGKANKLLIHSGSTLQSGIPSRFSGSGSGTDFTLTISSLEPEDFAMYYCQQHIEYPWTFGGGTKLEIKRASSEPKSSDKTHTCPPCPAPEAAGAPSVFLFPPKPKDTLMISRTPEVTCVVVDVSHEDPEVKFNWYVDGVEVHNAKTKPREEQYNSTYRVVSVLTVLHQDWLNGKAYACAVSNKALPAPIEKTISKAKGQPREPQVYTLPPSRDELTKNQVSLTCLVKGFYPSDIAVEWESNGQPENNYKTTPPVLDSDGSFFLYSKLTVDKSRWQQGNVFSCSVMHEALHNHYTQKSLSLSPGK | binds | – | –
TSC188 humanized SMIP (107-1A4 VL-VH#1 scFv-Fc) (Fc fusion, scFv-hinge-Fc) DIQMTQSPSAMSASVGDRVTITCRASKSISKYLAWFQQKPGKVPKLRIHSGSTLQSGVPSRFSGSGSGTEFTLTISSLQPEDFATYYCQQHIEYPWTFGQGTKVEIKRGGGGSGGGGSGGGGSEVQLVQSGAEVKKPGATVKISCKASGYTFTDYYMHWVQQAPGKGLEWMGYFNPYNDYTRYAEKFQGRVTITADTSTDTAYMELSSLRSEDTAVYYCARSDGYYDAMDYWGQGTTVTVSSSEPKSSDKTHTCPPCPAPEAAGAPSVFLFPPKPKDTLMISRTPEVTCVVVDVSHEDPEVKFNWYVDGVEVHNAKTKPREEQYNSTYRVVSVLTVLHQDWLNGKAYACAVSNKALPAPIEKTISKAKGQPREPQVYTLPPSRDELTKNQVSLTCLVKGFYPSDIAVEWESNGQPENNYKTTPPVLDSDGSFFLYSKLTVDKSRWQQGNVFSCSVMHEALHNHYTQKSLSLSPGK | – | binds | –
TSC189 humanized SMIP (107-1A4 VL-VH#2 scFv-Fc) (Fc fusion, scFv-hinge-Fc) DIQMTQSPSAMSASVGDRVTITCRASKSISKYLAWFQQKPGKVPKLRIHSGSTLQSGVPSRFSGSGSGTEFTLTISSLQPEDFATYYCQQHIEYPWTFGQGTKVEIKRGGGGSGGGGSGGGGSQVQLVQSGAEVKKPGASVKVSCKASGYTFTDYYMHWVRQAPGQGLEWMGYFNPYNDYTRYAQKFQGRVTMTRDTSISTAYMELSSLRSDDTAVYYCARSDGYYDAMDYWGQGTTVTVSSSEPKSSDKTHTCPPCPAPEAAGAPSVFLFPPKPKDTLMISRTPEVTCVVVDVSHEDPEVKFNWYVDGVEVHNAKTKPREEQYNSTYRVVSVLTVLHQDWLNGKAYACAVSNKALPAPIEKTISKAKGQPREPQVYTLPPSRDELTKNQVSLTCLVKGFYPSDIAVEWESNGQPENNYKTTPPVLDSDGSFFLYSKLTVDKSRWQQGNVFSCSVMHEALHNHYTQKSLSLSPGK | – | binds | –
TSC194 Scorpion (huVL-VH#2 107-1A4 scFv-Fc-Cris7 scFv) (bispecific antibody, also called humanized SCORPION molecule) DIQMTQSPSAMSASVGDRVTITCRASKSISKYLAWFQQKPGKVPKLRIHSGSTLQSGVPSRFSGSGSGTEFTLTISSLQPEDFATYYCQQHIEYPWTFGQGTKVEIKRGGGGSGGGGSGGGGSQVQLVQSGAEVKKPGASVKVSCKASGYTFTDYYMHWVRQAPGQGLEWMGYFNPYNDYTRYAQKFQGRVTMTRDTSISTAYMELSSLRSDDTAVYYCARSDGYYDAMDYWGQGTTVTVSSSEPKSSDKTHTCPPCPAPEAAGAPSVFLFPPKPKDTLMISRTPEVTCVVVDVSHEDPEVKFNWYVDGVEVHNAKTKPREEQYNSTYRVVSVLTVLHQDWLNGKAYACAVSNKALPAPIEKTISKAKGQPREPQVYTLPPSRDELTKNQVSLTCLVKGFYPSDIAVEWESNGQPENNYKTTPPVLDSDGSFFLYSKLTVDKSRWQQGNVFSCSVMHEALHNHYTQKSLSLSPGQRHNNSSLNTGTQMAGHSPNSQVQLVQSGGGVVQPGRSLRLSCKASGYTFTRSTMHWVRQAPGKGLEWIGYINPSSAYTNYNQKFKDRFTISADKSKSTAFLQMDSLRPEDTGVYFCARPQVHYDYNGFPYWGQGTPVTVSSGGGGSGGGGSGGGGSAQDIQMTQSPSSLSASVGDRVTMTCSASSSVSYMNWYQQKPGKAPKRWIYDSSKLASGVPARFSGSGSGTDYTLTISSLQPEDFATYYCQQWSRNPPTFGGGTKLQITR | – | – | binds
TSC199 Scorpion (huVL-VH#1 107-1A4 scFv-Fc-Cris7 scFv) (bispecific antibody, also called humanized SCORPION molecule) DIQMTQSPSAMSASVGDRVTITCRASKSISKYLAWFQQKPGKVPKLRIHSGSTLQSGVPSRFSGSGSGTEFTLTISSLQPEDFATYYCQQHIEYPWTFGQGTKVEIKRGGGGSGGGGSGGGGSEVQLVQSGAEVKKPGATVKISCKASGYTFTDYYMHWVQQAPGKGLEWMGYFNPYNDYTRYAEKFQGRVTITADTSTDTAYMELSSLRSEDTAVYYCARSDGYYDAMDYWGQGTTVTVSSSEPKSSDKTHTCPPCPAPEAAGAPSVFLFPPKPKDTLMISRTPEVTCVVVDVSHEDPEVKFNWYVDGVEVHNAKTKPREEQYNSTYRVVSVLTVLHQDWLNGKAYACAVSNKALPAPIEKTISKAKGQPREPQVYTLPPSRDELTKNQVSLTCLVKGFYPSDIAVEWESNGQPENNYKTTPPVLDSDGSFFLYSKLTVDKSRWQQGNVFSCSVMHEALHNHYTQKSLSLSPGQRHNNSSLNTGTQMAGHSPNSQVQLVQSGGGVVQPGRSLRLSCKASGYTFTRSTMHWVRQAPGKGLEWIGYINPSSAYTNYNQKFKDRFTISADKSKSTAFLQMDSLRPEDTGVYFCARPQVHYDYNGFPYWGQGTPVTVSSGGGGSGGGGSGGGGSAQDIQMTQSPSSLSASVGDRVTMTCSASSSVSYMNWYQQKPGKAPKRWIYDSSKLASGVPARFSGSGSGTDYTLTISSLQPEDFATYYCQQWSRNPPTFGGGTKLQITR | – | – | binds
